This data set in a line: soluble on expression in E. coli; label from the status in PepcDB or PDB records.
Consider “MNTLYTLFATCPRGLETVLSQELESLGCTDVQVFDGGVSCRGGLEQVYAANLHSRTASRILLRLTKGTYRNERDIYKLAKNINWFNWFTLQQTFKVKVEAKRANVKSIQFVGLTVKDAVCDAFRDIYDARPSVDKAAPDVRIHAFLNERNVEIFIDTSGEALFKRGYRLDTGEAPLRENLAAGLLLSAGYDGTQPFQDPFCGSGTIAIEAAWIAARRAPGMMRRFGFEKLQNFDKTLWSDLRRRAEAQTRPVRAPIAGSDNDRRIVQTALDNARRAGVDDIVSFSVADAQSVRPNGENGIMVSNPPYGVRLEEVRALQALYPQLGTWLKKHYAGWLAAMFTGDREMPKFMCLSPKRKIPLYNGNIDCRLFLIDMVEGSNR”, for which the “soluble on expression in E. coli” value is “not soluble”.
Regarding “SKIADPAFLRRLGYKIEFKPLSLTDYQALWMSLAKDYQMTLVPEFFETLSQLHRDNDVAYFPCLPKDLLGISRDILVFEGKEKIVSSDILTRAWGLYFTVDE”, the “soluble on expression in E. coli” value is “soluble”.
For “MSHLVYVSRVVAAPIERVWPHLRDFNGLSAWHPGVADSRLEEGGRDDAPGTVRFLSLNPSGYVRERLLMLDDAGRSLRYAIIETDLPMRDYVAGVDLCPVTEGGGTFAQWWADFDVVAGANRDEVARLVGEGVFAAGLQALDQYLRGRQALEHHHHHH”, the “soluble on expression in E. coli” value was “not soluble”.
On to “MVEIDPFEMAVKQLERAAQYMDISEEALEWLKKPMRIVEVSVPIEMDDGSVKVFTGFRVQHNWARGPTKGGIRWHPAETLSTVKALATWMTWKVAVVDLPYGGGKGGIIVNPKELSEREQERLARAYIRAVYDVIGPWTDIPAPDVYTNPKIMGWMMDEYETIMRRKGPAFGVITGKPLSIGGSLGRGTATAQGAIFTIREAAKALGIDLKGKKIAVQGYGNAGYYTAKLAKEQLGMTVVAVSDSRGGIYNPDGLDPDEVLKWKREHGSVKDFPGATNITNEELLELEVDVLAPAAIEEVITEKNADNIKAKIVAEVANGPVTPEADDILREKGILQIPDFLCNAGGVTVSYFEWVQNINGYYWTEEEVREKLDKKMTKAFWEVYNTHKDKNIHMRDAAYVVAVSRVYQAMKDRGWVKK”, for which the “soluble on expression in E. coli” value is on record as “soluble”.
Take “MMTDLSTPDLPRMSAAIAEPTSHDPDSGGHFGGPSGWGGRYVPEALMAVIEEVTAAYQKERVSQDFLDDLDRLQANYAGRPSPLYEATRLSQHAGSARIFLKREDLNHTGSHKINNVLGQALLARRMGKTRVIAETGAGQHGVATATACALLGLDCVIYMGGIDTARQALNVARMRLLGAEVVAVQTGSKTLKDAINEAFRDWVANADNTYYCFGTAAGPHPFPTMVRDFQRIIGMEARVQIQGQAGRLPDAVVACVGGGSNAIGIFHAFLDDPGVRLVGFEAAGDGVETGRHAATFTAGSPGAFHGSFSYLLQDEDGQTIESHSISAGLDYPGVGPEHAWLKEAGRVDYRPITDSEAMDAFGLLCRMEGIIPAIESAHAVAGALKLGVELGRGAVIVVNLSGRGDKDVETAAKWFGLLGND”: the “soluble on expression in E. coli” value is “soluble”.
As for “MTKDLLLELGLEELPAYVVTPSEKQLGQKMVKFLEDHRLSFETVQIFSTPRRLAVRVKGLADQQTDLTEDFKGPSKKIALDAEGNFSKAAQGFVRGKGLSVDDIEFREVKGEEYVYVTKHETGKSAIDVLASVTEVLTELTFPVNMHWANNSFEYIRPVHTLVVLLDDQALELDFLDIHSGRISRGHRFLGSDTEISSASSYEDDLRQQFVIADAKERQQMIVNQIHAIEEKKNISVEIDEDLLNEVLNLVEYPTAFLGSFDEKYLDVPEEVLVTSMKNHQRYFVVRDRDGKLLPNFISVRNGNAEHIENVIKGNEKVLVARLEDGEFFWQEDQKLNIADLVEKLKQVTFHEKIGSLYEHMDRVKVISQYLAEKADLSDEEKLAVLRAASIYKFDLLTGMVDEFDELQGIMGEKYALLAGEQPAVAAAIREHYMPTSADGELPETRVGAILALADKFDTLLSFFSVGLIPSGSNDPYALRRATQGIVRILEAFGWDIPLDELVTNLYGLSFASLDYANQKEVMAFISARIEKMIGSKVPKDIREAVLESDTYI”, the “soluble on expression in E. coli” value is “not soluble”.
Consider “MSLGFVPVRGLHHFAYRCRDAEETRQFYEGILGLPLVHVVRAEEVPSTGEYCPYMHLFFEMKDGSCVAFFDLDDDTVPLPSSNTPVWAQHLALRVDSVAAVEEAKRKLEQAGVKVLGPVDHDGFVCSIYFFDPNGVRLELTTDTADSTEMARYRREARPGCDAWTLEKSLRRATGQGSVLREGHHHHHH”, for which the “soluble on expression in E. coli” value was “not soluble”.
Turning to “MDADDLRQLAINVSMDDIAASRDATKRLQQLFTPQQIVAMLKDAPSTHALRVLVGEMEAVGNPDVFHLIGGVLEDVFTQPSRESKAVLFAPAAQFLVEFIVRSAAAADTAVASSMSKALHRLIAIAGDSTEAAAFLGPCLDANFHNEQVLRLFDCDAVESAENKTVCGFLEQWTSLLPFMFEATLDAFENDPLLQANYTIASGVACRTVDVPSALRQRTMDILRAKDDSLCFAYVCRFWSIALLRHEANGQRDAAACVSTVMPAAEASERDERATEAIFDLLGSAASTQAGWDAVTRQLPCKTLQVRLSSTSPSLRLSTLNLMLCMLTSPHMNVSFFTKDLLLDAWQTRTSPDDMVRLALWRVANAALLQESLNRMLGAACASFLSSGAHEENVAVRSLKLTAAERLLRHSTLPENVKARLSQVVERGLYPAGSSGVSLIAKD”, the “soluble on expression in E. coli” value was “not soluble”.
For “MGSDKIHHHHHHMFEIKVSQEIKNACPVFAGAAVYAAVKNTAYCDGLWKEINTFTEDLTTTTQMADIKLQPVIAATREAYKRCGKDPGRYRPSAEALRRRLMRGIPLYQIDTLVDLINLVSLRTGHSIGGFDADKIQGNHLELGIGKAEEPFEGIGRGILNIEGLPVYRDSFGGIGTPTSDHERTKMDIGTTHILAIVNGYNGKEGLKEAAEMIQSLLKDYAGSDGGELIYFE”, the “soluble on expression in E. coli” value is “not soluble”.
For “MGKNVVVLGTQWGDEGKGKVVDLLTERAKYVVRYQGGHNAGHTLVINGEKTVLHLIPSGILRENVISIIGNGVVLAPDALMKEMTELEARGVPVRERLLLSEACPLILPYHVALDNAREKARGAKAIGTTGRGIGPAYEDKVARRGLRVSDLFNKETFAIKLKEIVEYHNFQLVHYYKEAAVDYQKVLDDVLAIADILTAMVVDVSELLDNARKQGELIMFEGAQGTLLDIDHGTYPYVTSSNTTAGGVATGSGLGPRYVDYVLGIVKAYSTRVGAGPFPTELNDETGEFLRKQGNEYGATTGRSRRTGWLDIVAVRRAVQINSLSGFCMTKLDVLDGLKEVKLCVGYRMPDGREVDTTPLAAEGWEGIEPIYETMPGWSETTFGVKEHSKLPQAALNYIQRVEELTGVPIDIISTGPDRDETMILRDPFDA”, the “soluble on expression in E. coli” value is given as “soluble”.
As for “MRVDELRVDERIKSTLKERGIESFYPPQAEALKSGILEGKNALISIPTASGKTLIAEIAMVHRILTQGGKAVYIVPLKALAEEKFQEFQDWEKIGLRVAMATGDYDSKDEWLGKYDIIIATAEKFDSLLRHGSSWIKDVKILVADEIHLIGSRDRGATLEVILAHMLGKAQIIGLSATIGNPEELAEWLNAELIVSDWRPVKLRRGVFYQGFVTWEDGSIDRFSSWEELVYDAIRKKKGALIFVNMRRKAERVALELSKKVKSLLTKPEIRALNELADSLEENPTNEKLAKAIRGGVAFHHAGLGRDERVLVEENFRKGIIKAVVATPTLSAGINTPAFRVIIRDIWRYSDFGMERIPIIEVHQMLGRAGRPKYDEVGEGIIVSTSDDPREVMNHYIFGKPEKLFSQLSNESNLRSQVLALIATFGYSTVEEILKFISNTFYAYQRKDTYSLEEKIRNILYFLLENEFIEISLEDKIRPLSLGIRTAKLYIDPYTAKMFKDKMEEVVKDPNPIGIFHLISLTPDITPFNYSKREFERLEEEYYEFKDRLYFDDPYISGYDPYLERKFFRAFKTALVLLAWINEVPEGEIVEKYSVEPGDIYRIVETAEWLVYSLKEIAKVLGAYEIVDYLETLRVRVKYGIREELIPLMQLPLVGRRRARALYNSGFRSIEDISQARPEELLKIEGIGVKTVEAIFKFLGKNVKISEKPRKSTLDYFLKS”, the “soluble on expression in E. coli” value is “soluble”.
With “AWKGEVLANNEAGQVTSIIYNPGDVITIVAAGWASYGPTQKWGPQGDREHPDQGLICHDAFCGALVMKIGNSGTIPVNTGLFRWVAPNNVQGAITLIYNDVPGTYGNNSGSFSVNIGKDQS”, the “soluble on expression in E. coli” value is on record as “soluble”.
On to “SRNFSVFERFSKAFKDHPSLTRILVVSTISGGGLIAYSEANASYGANGGAVVETGTKKKKVVLLGTGWAGTSFLKNLNNSQYEVQIISPRNYFAFTPLLPSVTCGTVEARSVVEPIRNIGRKNVDTSYLEAECFKIDPASKKVYCRSKQGLSSNGKKEFSVDYDYLVIATGAQSNTFNIPGVEENCHFLKEVEDAQRIRKTVIDSFEKASLPELSDEERKRILHFVVVGGGPTGVEFAAELHDFVTEDLVSLYPRAKGSVRITLLEAADHILTMFDKRITEFAEEKFSRDGIDVKLGSMVTKVNEKDISAKTKGGEVSSIPYGMIVWSTGIGTRPVIKDFMKQIGQGNRRALATDEWLRVEGTDNIYALGDCATINQRKVMEDVSAIFSKADKDKSGTLTLKEFQEAMDDICVRYPQVELYLKSKRMRGIADLLKEAETDDVSKNNIELKIEEFKSALSQVDSQVKFLPATAQVAAQQGAYLAKCFDRMEECEKSPEGPIRMRGEGRHRFRPFRYRHLGQFAPLGGEQTAAQLPGDWVSIGHSSQWLWYSVYASKQVSWRTRVLVVSDWMRRFIFGRDSSSI”, for which the “soluble on expression in E. coli” value is on record as “soluble”.
“MGSDKIHHHHHHMDIISSFGFGRKHIAPILSKLMMLYPKLQIHFDTIDNTKDLIQHSIDLDIRIGNEIAPNMIAKKLASNFRILCASPSYLLKHGVPDSIEDLQTHDCLTISERDQSSVLWKFRHASEDVSVHIKPRFVSNNGEIIHQLAIEGHGIIFRSIWDVADELITGQLQHILPEYWQDADVWAVYPSRLKSSSKLQTCILFIQNELLNRLQHVQNLSRGQLISPAVKREPPPEKVFL”: the “soluble on expression in E. coli” value is “not soluble”.
For the sequence “MSLGEWKDELIHNADKFDFPIFTPYYELTDEQRRTLWEGNQYFHGINDFFKMLEENQYKIQYRVMLARYRGKTICPKCHGTRLKPEAGYVRVDGKSISELVDLPITELKEFFDHLNLNEHDSNVARRILIEINSRIRFLIDVGLGYLTLNRLSNSLSGGESQRINLATSLGSSLVGSLYILDEPSIGLHSRDTDRLIRVLRQLQELGNTVVVVEHDEEIIRAADYIIDIGPNAGRLGGEVVYQGDMKDLKKGSNSHTVRYLLGEEEIPVPEHRRPWNNYIELTGARENNLKGVNVKFPLNVMTVVTGVSGSGKSTLVRDIFYRALKRELDECSDRPGEFSSISGSLRDLRNIEFVDQNPIGKSSRSNPVTYIKAYDEIRKLWAEQPLAKQMGYTAGHFSFNSEGGRCEECKGEGTITVEMQFMADLVLECESCHGKRFKADTLEVKFQDKNIYDVLEMTVNQAVEFFTEHGQKKIVKRLLPLQDVGLGYIKLGQSSSTLSGGENQRVKLAFYLSQEKADPTLFIFDEPTTGLHFHDIRKLLDAFDALIRRGHSIVIIEHNMDVIKCADYVIDLGPEGGDKGGNIVAVGTPEEVAACGASYTGQFLKEKLAEGHHHHHH”, the “soluble on expression in E. coli” value is listed as “not soluble”.
On to “MGSDKIHHHHHHLVGISHDTDQRILEQAMNMIRENGEDQLSLRKLARAIGLTTGAFYKHFATKDALLRAVTQLLSQREEAEMAQVLGQITDPEEKLLVMAAEILERFEADPHLMHFLFFNPAARDVLKVEPGQFGFYDQVIQLIKDVLRKRGITIDPQILFIQLWSFIQGYGLLIDSGITSYDPNLVRKTLKDLLEVSND”, for which the “soluble on expression in E. coli” value is listed as “not soluble”.

For the origin of these results see the DeepSol protein solubility set.
